{"source": "patent US20260274955A1", "about": "(JANUX THERAPEUTICS, published 2026)"}
{"target": "T1, Anti-CD28 Fab (SEQ ID NOs: 202, 203)", "T1 construct": "biotinylated and captured on neutravidin coated plates in the phage ELISA", "T1 sequence (VH, as listed by the source, chain 1 of 2)": "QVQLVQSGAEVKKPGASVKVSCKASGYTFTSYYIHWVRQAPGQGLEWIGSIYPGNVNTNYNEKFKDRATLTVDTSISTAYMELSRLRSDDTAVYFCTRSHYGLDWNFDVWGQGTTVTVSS", "T1 sequence (VL, as listed by the source, chain 2 of 2)": "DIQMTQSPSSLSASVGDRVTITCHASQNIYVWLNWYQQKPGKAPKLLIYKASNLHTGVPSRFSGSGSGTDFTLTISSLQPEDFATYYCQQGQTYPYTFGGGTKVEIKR", "assay": "phage ELISA, Fab on plate;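 further: crude clonal phage supernatants added to wells pretreated with blocking buffer with or without CD28 antigen, then bound phage read out via HRP-linked anti-M13 antibody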"}
{"binder": "YCVGHSEQYMAKCL", "note": "[Phage-726]", "Anti-CD28 Fab (SEQ ID NOs: 202, 203) signal": 1.13}
{"target": "T2, anti-CD28 Fab (SEQ ID NOs: 202, 203)", "T2 construct": "biotinylated and captured on neutravidin coated plates in the phage ELISA", "T2 sequence (VH, as listed by the source, chain 1 of 2)": "as the sequence (VH, as listed by the source, chain 1 of 2) above", "T2 sequence (VL, as listed by the source, chain 2 of 2)": "as the sequence (VL, as listed by the source, chain 2 of 2) above", "assay": "phage binding ELISA; biotinylated Fab on neutravidin plate;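 further: clonal phage supernatants added to Fab wells pretreated with CD28 antigen or with blocking buffer only, bound phage read out via HRP-linked anti-M13 antibody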", "method": "Clonal phage were harvested as crude supernatants and screened via standard ELISAs. […] Prior to the addition of clonal phage, wells were incubated with blocking buffer and CD28 antigen or blocking buffer alone. Without washing or aspirating, clonal phage supernatants were then added to the wells and incubated for a short time. Wells were then washed followed by detection of bound phage using a horse radish conjugated anti-M13 antibody."}
{"binder": "YCDGHAEKYMQKCL", "note": "[Phage-408]", "Anti-CD28 Fab (SEQ ID NOs: 202, 203) signal": 1.74}
{"binder": "YCDGHLPEYFLKCL", "note": "[Phage-436]", "Anti-CD28 Fab (SEQ ID NOs: 202, 203) signal": 1.71}
{"binder": "YCEGHLAVYMQKCL", "note": "[Phage-301]", "Anti-CD28 Fab (SEQ ID NOs: 202, 203) signal": 1.91}
{"binder": "YCEGHSAEFMTKCL", "note": "[Phage-363]", "Anti-CD28 Fab (SEQ ID NOs: 202, 203) signal": 1.81}
{"binder": "YCEGHSEMYMKKCL", "note": "[Phage-425]", "Anti-CD28 Fab (SEQ ID NOs: 202, 203) signal": 1.72}
{"binder": "YCEGHSEEYMSKCL", "note": "[Phage-304]", "Anti-CD28 Fab (SEQ ID NOs: 202, 203) signal": 1.91}
{"binder": "YCAGHTQEYMYKCL", "note": "[Phage-438]", "Anti-CD28 Fab (SEQ ID NOs: 202, 203) signal": 1.7}
{"binder": "YCDGHAAEFMMKCL", "note": "[Phage-423]", "Anti-CD28 Fab (SEQ ID NOs: 202, 203) signal": 1.72}
{"binder": "YCDGHSSMYMAKCL", "note": "[Phage-361]", "Anti-CD28 Fab (SEQ ID NOs: 202, 203) signal": 1.82}
{"binder": "YCHGHLQEYMAKCL", "note": "[Phage-398]", "Anti-CD28 Fab (SEQ ID NOs: 202, 203) signal": 1.76}
{"binder": "YCDGHSREYMVKCL", "note": "[Phage-431]", "Anti-CD28 Fab (SEQ ID NOs: 202, 203) signal": 1.71}
{"binder": "YCDGHHIEYLAKCL", "note": "[Phage-402]", "Anti-CD28 Fab (SEQ ID NOs: 202, 203) signal": 1.75}
{"binder": "YCEGHSVQYMQKCL", "note": "[Phage-429]", "Anti-CD28 Fab (SEQ ID NOs: 202, 203) signal": 1.71}
{"binder": "YCQGHLPVYMEKCL", "note": "[Phage-427]", "Anti-CD28 Fab (SEQ ID NOs: 202, 203) signal": 1.72}
{"binder": "YCEGHSSEYMEKCL", "note": "[Phage-302]", "Anti-CD28 Fab (SEQ ID NOs: 202, 203) signal": 1.91}
{"binder": "YCDGHAPVYMAKCL", "note": "[Phage-400]", "Anti-CD28 Fab (SEQ ID NOs: 202, 203) signal": 1.75}
{"binder": "YCDGHSLAYIAKCL", "note": "[Phage-437]", "Anti-CD28 Fab (SEQ ID NOs: 202, 203) signal": 1.7}
{"binder": "YCEGHAPQYLNKCL", "note": "[Phage-358]", "Anti-CD28 Fab (SEQ ID NOs: 202, 203) signal": 1.82}
{"binder": "YCDGHAREYMTKCL", "note": "[Phage-359]", "Anti-CD28 Fab (SEQ ID NOs: 202, 203) signal": 1.82}
{"binder": "YCDGHTQAYIQKCL", "note": "[Phage-421]", "Anti-CD28 Fab (SEQ ID NOs: 202, 203) signal": 1.73}
{"binder": "YCDGHKPQYMEKCL", "note": "[Phage-394]", "Anti-CD28 Fab (SEQ ID NOs: 202, 203) signal": 1.76}
{"binder": "YCDGHSWEYMEKCL", "note": "[Phage-441]", "Anti-CD28 Fab (SEQ ID NOs: 202, 203) signal": 1.7}
{"binder": "YCDGHSGVYMWKCL", "note": "[Phage-420]", "Anti-CD28 Fab (SEQ ID NOs: 202, 203) signal": 1.73}
{"binder": "YCDGHLPEYIFKCL", "note": "[Phage-416]", "Anti-CD28 Fab (SEQ ID NOs: 202, 203) signal": 1.73}
{"binder": "YCDGHLPLYMHKCL", "note": "[Phage-357]", "Anti-CD28 Fab (SEQ ID NOs: 202, 203) signal": 1.82}
{"binder": "YCEGHLQTYMAKCL", "note": "[Phage-414]", "Anti-CD28 Fab (SEQ ID NOs: 202, 203) signal": 1.73}
{"binder": "YCDGHLVEYRGKCL", "note": "[Phage-432]", "Anti-CD28 Fab (SEQ ID NOs: 202, 203) signal": 1.71}
{"binder": "YCEGHLAQYMWKCL", "note": "[Phage-300]", "Anti-CD28 Fab (SEQ ID NOs: 202, 203) signal": 1.91}
{"binder": "YCEGHLAQYMNKCL", "note": "[Phage-396]", "Anti-CD28 Fab (SEQ ID NOs: 202, 203) signal": 1.76}
{"binder": "YCDGHLEEYMVKCM", "note": "[Phage-413]", "Anti-CD28 Fab (SEQ ID NOs: 202, 203) signal": 1.73}
{"binder": "YCDGHSLQYMDKCL", "note": "[Phage-405]", "Anti-CD28 Fab (SEQ ID NOs: 202, 203) signal": 1.75}
{"binder": "YCDGHYPEYMSKCL", "note": "[Phage-406]", "Anti-CD28 Fab (SEQ ID NOs: 202, 203) signal": 1.75}
{"binder": "YCDGHVEPYLSKCL", "note": "[Phage-393]", "Anti-CD28 Fab (SEQ ID NOs: 202, 203) signal": 1.76}
{"binder": "YCDGHTEEYMDKCL", "note": "[Phage-360]", "Anti-CD28 Fab (SEQ ID NOs: 202, 203) signal": 1.82}
{"binder": "YCDGHAAEYMDKCL", "note": "[Phage-428]", "Anti-CD28 Fab (SEQ ID NOs: 202, 203) signal": 1.72}
{"binder": "YCAGHSQEHIQKCL", "note": "[Phage-415]", "Anti-CD28 Fab (SEQ ID NOs: 202, 203) signal": 1.73}
{"binder": "YCDGHIGEYMVKCL", "note": "[Phage-395]", "Anti-CD28 Fab (SEQ ID NOs: 202, 203) signal": 1.76}
{"binder": "YCDGHAEEYLWKCL", "note": "[Phage-418]", "Anti-CD28 Fab (SEQ ID NOs: 202, 203) signal": 1.73}
{"binder": "YCDGHSAEYMEKCI", "note": "[Phage-356]", "Anti-CD28 Fab (SEQ ID NOs: 202, 203) signal": 1.83}
{"binder": "YCDGHLDIYLAKCL", "note": "[Phage-303]", "Anti-CD28 Fab (SEQ ID NOs: 202, 203) signal": 1.91}
{"binder": "YCEGHLPQYFMKCL", "note": "[Phage-440]", "Anti-CD28 Fab (SEQ ID NOs: 202, 203) signal": 1.7}
{"binder": "YCDGHLQIYMHKCL", "note": "[Phage-434]", "Anti-CD28 Fab (SEQ ID NOs: 202, 203) signal": 1.71}
{"binder": "YCDGHAIQYIGKCL", "note": "[Phage-422]", "Anti-CD28 Fab (SEQ ID NOs: 202, 203) signal": 1.72}
{"binder": "YCDGHLQIYLWKCL", "note": "[Phage-426]", "Anti-CD28 Fab (SEQ ID NOs: 202, 203) signal": 1.72}
{"binder": "YCEGHAIEYLAKCL", "note": "[Phage-409]", "Anti-CD28 Fab (SEQ ID NOs: 202, 203) signal": 1.74}
{"binder": "YCDGHVQEYMQKCL", "note": "[Phage-397]", "Anti-CD28 Fab (SEQ ID NOs: 202, 203) signal": 1.76}
{"binder": "YCDGHSPQYMQKCL", "note": "[Phage-390]", "Anti-CD28 Fab (SEQ ID NOs: 202, 203) signal": 1.76}
